Laboratory results as given in article doi:10.1101/2020.02.25.965475.

T1: FLAG-TEN N338Y (Cucumis sativus (cucumber), UniProt A0A0A0KSL1 1-395, N338Y)
T1 sequence: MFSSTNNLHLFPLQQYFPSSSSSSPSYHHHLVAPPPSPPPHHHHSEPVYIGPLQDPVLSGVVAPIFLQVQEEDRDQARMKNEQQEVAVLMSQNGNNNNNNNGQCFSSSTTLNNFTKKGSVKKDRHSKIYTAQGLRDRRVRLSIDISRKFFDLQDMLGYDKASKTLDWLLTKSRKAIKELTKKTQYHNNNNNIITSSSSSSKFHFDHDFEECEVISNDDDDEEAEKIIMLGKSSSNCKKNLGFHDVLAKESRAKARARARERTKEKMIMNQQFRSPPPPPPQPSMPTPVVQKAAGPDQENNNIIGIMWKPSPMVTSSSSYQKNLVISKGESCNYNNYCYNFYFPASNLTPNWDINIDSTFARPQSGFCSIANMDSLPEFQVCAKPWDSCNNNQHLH

T2: MBP-C (Cucumis sativus (cucumber), UniProt A0A0A0KSL1 265-395)
T2 sequence: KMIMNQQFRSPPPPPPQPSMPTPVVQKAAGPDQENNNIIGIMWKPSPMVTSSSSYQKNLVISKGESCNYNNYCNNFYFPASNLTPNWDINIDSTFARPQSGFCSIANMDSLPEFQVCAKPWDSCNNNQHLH

T3: FLAG-ΔN121 (TCP+R+C130) (Cucumis sativus (cucumber), UniProt A0A0A0KSL1 122-395, del1-121)
T3 sequence: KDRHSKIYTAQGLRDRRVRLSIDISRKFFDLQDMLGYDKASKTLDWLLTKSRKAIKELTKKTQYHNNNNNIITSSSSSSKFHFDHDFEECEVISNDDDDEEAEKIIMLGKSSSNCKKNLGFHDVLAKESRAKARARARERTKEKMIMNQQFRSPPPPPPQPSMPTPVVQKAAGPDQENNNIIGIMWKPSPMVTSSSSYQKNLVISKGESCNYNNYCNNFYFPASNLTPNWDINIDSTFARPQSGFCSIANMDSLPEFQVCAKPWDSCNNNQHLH

T4: FLAG-TEN (Cucumis sativus (cucumber), UniProt A0A0A0KSL1 1-395)
T4 sequence: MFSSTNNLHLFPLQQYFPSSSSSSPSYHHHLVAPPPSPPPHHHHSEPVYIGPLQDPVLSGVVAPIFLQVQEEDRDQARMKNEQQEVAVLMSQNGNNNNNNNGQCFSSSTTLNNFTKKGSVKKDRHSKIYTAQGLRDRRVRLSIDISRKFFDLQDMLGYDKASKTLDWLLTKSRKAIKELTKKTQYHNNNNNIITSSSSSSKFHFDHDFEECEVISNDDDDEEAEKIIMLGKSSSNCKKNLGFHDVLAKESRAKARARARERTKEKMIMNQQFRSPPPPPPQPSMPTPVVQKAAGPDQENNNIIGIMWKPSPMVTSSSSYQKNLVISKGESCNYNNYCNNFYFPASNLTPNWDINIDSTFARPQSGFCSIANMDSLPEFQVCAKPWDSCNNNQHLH


Columns and labels:
Assay in all cases: EMSA
FLAG-TEN N338Y = molecular target: T1, FLAG-TEN N338Y
MBP-C = molecular target: T2, MBP-C
FLAG-ΔN121 (TCP+R+C130) = molecular target: T3, FLAG-ΔN121 (TCP+R+C130)
FLAG-TEN = molecular target: T4, FLAG-TEN

Row | Binder | binding result (FLAG-TEN N338Y) | binding result (MBP-C) | binding result (FLAG-ΔN121 (TCP+R+C130)) | binding result (FLAG-TEN)
1 | GGTCCC probe (GTGGTCCCAC) (dsDNA) DNA 1: AAATTAAGAATATTGTGGTCCCACTCAAATATAAAGTATTAATT DNA 2: AATTAATACTTTATATTTGAGTGGGACCACAATATTCTTAATTT | binds | – | – | –
2 | CTCCGCC probe (dsDNA) DNA 1: AAATTAAGAATATTTAACTCCGCCAATTCAAATATAAAGTATTAATT DNA 2: AATTAATACTTTATATTTGAATTGGCGGAGTTAAATATTCTTAATTT | no binding | no binding | binds | binds
